# In patent US20210030885A1, “HUMANIZED ANTI-LIV1 ANTIBODIES FOR THE TREATMENT OF CANCER” (priority 2019, published 2021):
# Legend:
# [1] = Drug to antibody ratio (DAR) of ADC in blood samples after LV administration, Q3W; type: in vivo, human; conditions: Q3W dosing
# Protocol: In order to investigate pharmacokinetics of ADC species with different DARs under the previous tri-weekly dosing scheme (Q3W) versus a weekly dosing scheme (Q1W), LV was administered to subjects accordingly, and the pharmacokinetics of ADC species with different DARs were simulated.
# Breast cancer patients were treated with ladiratuzumab vedotin (LV).
# LV was administered by 30 minute intravenous (IV) infusion under a Q3W interval.
# Following administration of LV, subject blood samples were collected at pre-dose, end of infusion, 2 hrs, 4 hrs, 8 hrs, 1 day, 3 days, 7 days, and 14 days after administration. The concentrations of the antibody-drug conjugate (ADC) was measured, and the drug to antibody ratio (DAR) of each species (DAR8, DAR7, DAR6, DARS, DAR4, DAR3, DAR2, DAR1 and DAR0) of the ADCs collected in blood samples was also analyzed. […] Using computer-assisted modeling, where decrease in average DAR was established previously, i.e. from 4 (on Day 0) to 1 (on Day 7) under Q3W, the pharmacokinetics were simulated for (i) ADCs with DARs≥4, or (ii) ADCs with DAR of between 2 and 3 (FIGS. 3B, C respectively) when LV was administered at a dose of 1 mg/kg on Day 1 of each 7-day cycle (Q1W) or at a dose of 3 mg/kg on Day 1 of each 21-day cycle (Q3W). […]
# [2] = test system: patients; test: Adverse event incidence with previous LV dosing regimen 2.5 mg/kg Q3W; type: in vivo, human; conditions: n = 65
# [3] = Chemical and physical stability of the reconstituted drug product; type: physicochemical; conditions: at 2-8° C. and at room temperature
# Protocol: When reconstituted with 8.8 mL Water for Injection (WFI), US Pharmacopeia (USP), the concentration of reconstituted LV product is 5 mg/mL. The reconstituted drug product is a clear to slightly opalescent, colorless to light yellow solution with no visible particulate matter. The pH is approximately 6.0. The reconstituted solution is subsequently diluted in sterile 0.9% Sodium Chloride for Injection, USP, for IV administration.
# If not used immediately, the in-use storage should not be longer than 24 hours under refrigeration at 2-8° C. The prepared dosing solution (reconstituted drug product solution and saline dilution in an IV bag or polypropylene syringe) should be administered within 8 hours after exposing to ambient temperature and light condition.
substance,measurement,setting,value
ladiratuzumab vedotin [LV],DAR of ADCs in blood,[1]; Day 0,about 4
same,DAR of ADCs in blood,[1]; Day 7,about 1
same,Adverse event incidence: Abdominal Pain,[2],18 (28%)
same,Adverse event incidence: Alopecia,[2],22 (34%)
same,Adverse event incidence: Constipation,[2],32 (49%)
same,Adverse event incidence: Decreased Appetite,[2],29 (45%)
same,Adverse event incidence: Diarrhea,[2],23 (35%)
same,Adverse event incidence: Fatigue,[2],38 (59%)
same,Adverse event incidence: Hypokalemia,[2],17 (26%)
same,Adverse event incidence: Nausea,[2],32 (49%)
same,Adverse event incidence: Neutropenia,[2],19 (29%)
same,Adverse event incidence: Peripheral Sensory Neuropathy,[2],21 (32%)
same,Adverse event incidence: Vomiting,[2],14 (22%)
same,Chemical and physical stability of the reconstituted drug product demonstrated for,[3],24 h
